The text below walks through data of paper PMC2212462 (The Journal of Experimental Medicine, 1998).

One may read the stoichiometry N as a count of units in the complex or per binding partner.

Series [1] addresses CD3-ε (human (endogenous in HPB-ALL)) (UniProt P07766). Kind of series: co-IP.
Series [2] deals with the molecule itself. The series can be described thus: non-reducing and reducing SDS-PAGE with Western blot.

Chain of CD3-ε (human (endogenous in HPB-ALL)) (P07766 23-207): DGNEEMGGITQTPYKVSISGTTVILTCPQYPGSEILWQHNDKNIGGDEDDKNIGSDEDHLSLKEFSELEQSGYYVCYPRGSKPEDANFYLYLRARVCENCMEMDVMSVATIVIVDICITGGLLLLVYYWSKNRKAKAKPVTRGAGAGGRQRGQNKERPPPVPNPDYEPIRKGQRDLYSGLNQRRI

As to “T cell receptor interacting molecule (TRIM) (from UniProt Q6PIZ9 1-186) (natural protein)”, the reduction of TRIM in the lysate after depletion of CD3 in series [1] was determined as 67%.

B1: T cell receptor interacting molecule (TRIM) (natural protein)
chain: MSGISGCPFFLWGLLALLGLALVISLIFNISHYVEKQRQDKMYSYSSDHTRVDEYYIEDTPIYGNLDDMISEPMDENCYEQMKARPEKSVNKMQEATPSAQATNETQMCYASLDHSVKGKRRKPRKQNTHFSDKDGDEQLHAIDASVSKTTLVDSFSPESQAVEENIHDDPIRLFGLIRAKREPIN
On to B1, for which the “stoichiometry N” value in series [2] came to 2.
